Reference: patent US20030223992A1 (SCHERING, published 2003)
Where no end group is shown, it is not given here.

T1: Human SP9155 receptor (human, UniProt Q96P65 1-431)
T1 sequence: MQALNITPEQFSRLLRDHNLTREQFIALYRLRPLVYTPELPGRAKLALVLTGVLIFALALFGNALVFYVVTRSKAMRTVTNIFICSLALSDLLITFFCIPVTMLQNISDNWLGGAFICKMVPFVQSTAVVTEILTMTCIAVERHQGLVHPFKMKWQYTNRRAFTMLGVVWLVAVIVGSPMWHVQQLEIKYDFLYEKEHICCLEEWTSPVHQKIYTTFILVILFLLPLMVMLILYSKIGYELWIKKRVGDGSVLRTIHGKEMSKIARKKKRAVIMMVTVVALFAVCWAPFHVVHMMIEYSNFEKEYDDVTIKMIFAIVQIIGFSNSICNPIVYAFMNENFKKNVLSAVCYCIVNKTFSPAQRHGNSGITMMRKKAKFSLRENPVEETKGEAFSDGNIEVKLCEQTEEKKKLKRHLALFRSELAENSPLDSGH

B1: Human P513 (peptide)
peptide: KGGFSFRF-NH2
B2: Human P517 (peptide)
peptide: KKGGFSFRF-NH2
B3: Human P51 (peptide)
peptide: EHAGCRFRF-NH2
B4: Human P52 (peptide)
peptide: GGFSFRF-NH2

Each binder was assayed against T1, Human SP9155 receptor (assay: cell-based or functional assay).

Binder	EC50 (nM), Ca2+ flux (FLIPR) in HEK293 cells transfected with SP9155 receptor
B1	258 nM
B2	235 nM
B3	1560 nM
B4	245 nM
